Target: Pin1 WW-domain (UniProt Q13526)
Assay: isothermal titration calorimetry
Details: reference: unphosphorylated TFCD peptide; sites S258,S253

Tissue Factor (TF) cytoplasmic domain (TFCD) (from UniProt P13726) double phosphorylated TFCD peptide
KD: stronger; reference 1.53 mM
